B1: Clone A (affinity matured antibody from the combinatorial library) (Fab, V domains shown)
VH: EVQLVQSGAEVKKPGASVKVSCKASGYTFTYYAMHWVRQAPGQRLEWMGWINAGNGFTKYSQKFQGRVTITRDTSASTAYMELSSLRSEDTAVYYCARDISYGSFDYWGQGTLVTVSS
VL: SSELTQDPAVSVALGQTVRITCQGDSLRSNYANWYQQKPGQAPVLVIYGQFNLPSGIPDRFSGSSSGNTASLTITGAQAADEADYYCDSRVSTGIHVVFGGGTKLTVLG
notes: Format in the screen not expressly stated
B2: Clone B (affinity matured antibody from the combinatorial library) (Fab, V domains shown)
VH: EVQLVQSGAEVKKPGVSVKVSCKASGYTFTYYAMHWVRQAPGQRLEWMGWINAGNGFTKYSQKFQGRVTITRDTSASTAYMELSSLRSEDTAVYYCARDISYGSFDYWGQGTLVTVSS
VL: SSELTQDPAVSVALGQTVRITCQGDSLRSNYANWYQQKPGQAPVLVIYGQFNLPSGIPDRFSGSSSGNTASLTITGAQAADEADYYCDSRVSTGIHVVFGGGTKLTVLG
notes: A16V was placed on the heavy chain; Format in the screen not expressly stated
B3: Clone C (affinity matured antibody from the combinatorial library) (Fab, V domains shown)
VH: EVQLVQSGAEVKKPGASVKVSCKASGYTFTYYAMHWVRQAPGQRLEWMGWINAGNGFTKYSQKFQGRVTITRDTSASTAYMELSSLRSEDTAVYYCARDISYGSFDYWGQGTLVTVSS
VL: SSELTQDPAVSVALGQTVRITCQGDSLRSNYANWYQQKPGQAPVLVIYGQFNRPSGIPDRFSGSSSGNTASLTITGAQAADEADYYCDSRVSTGIHVVFGGGTKLTVLG
notes: as for B1
B4: Clone D (affinity matured antibody from the combinatorial library) (Fab, V domains shown)
VH: EVQLVQSGAEVKKPGASVKVSCKASGYTFTYYAMHWVRQAPGQRLEWMGWINAGNGNTKYSQKFQGRVTITRDTSASTAYMELSSLRSEDTAVYYCARDISYGSFDYWGQGTLVTVSS
VL: SSELTQDPAVSVALGQTVRITCQGDSLRSNYANWYQQKPGQAPVLVIYGQFNLPSGIPDRFSGSSSGNTASLTITGAQAADEADYYCDSRVSTGIHVVFGGGTKLTVLG
notes: as for B1
B5: Clone F (affinity matured antibody from the combinatorial library) (Fab, V domains shown)
VH: EVQLVQSGAEVKKPGASVKVSCKASGYTFTYYAMHWVRQAPGQRLEWMGWINAGNGNTKYSQKFQGRVTITRDTSASTAYMELSSLRSEDTAVYYCARDISYGSFDYWGQGTLVTVSS
VL: SSELTQDPAVSVALGQTVRITCQGDSLRSNYANWYQQKPGQAPVLVIYGQFNLPSGIPDRFSGSSSGNTASLTITGAQAADEADYYCDSRVSTGNHVVFGGGTKLTVLG
notes: as for B1
B6: Clone G (affinity matured antibody from the combinatorial library) (Fab, V domains shown)
VH: EVQLVQSGAEVKKPGASVKVSCKASGYTFTIYAMHWVRQAPGQRLEWMGWINAGNGNTKYSQKFQGRVTITRDTSASTAYMELSSLRSEDTAVYYCARDISYGSFDYWGQGTLVTVSS
VL: SSELTQDPAVSVALGQTVRITCQGDSLRSNYANWYQQKPGQAPVLVIYGQFNLPSGIPDRFSGSSSGNTASLTITGAQAADEADYYCDSRVSTGIHVVFGGGTKLTVLG
notes: as for B1
B7: Clone H (affinity matured antibody from the combinatorial library) (Fab, V domains shown)
VH: EVQLVQSGAEVKKPGASVKVSCKASGYTFTIYAMHWVRQAPGQRLEWMGWINAGNGNTKYSQKFQGRVTITRDTSASTAYMELSSLRSEDTAVYYCARDISYGSFDYWGQGTLVTVSS
VL: SSELTQDPAVSVALGQTVRITCQGDSLRSNYANWYQQKPGQAPVLVIYGQFNRPSGIPDRFSGSSSGNTASLTITGAQAADEADYYCDSRVSTGIHVVFGGGTKLTVLG
notes: as for B1
B8: Clone I (affinity matured antibody from the combinatorial library) (Fab, V domains shown)
VH: EVQLVQSGAEVKKPGASVKVSCKASGYTFTIYAMHWVRQAPGQRLEWMGWINAGNGNTKYSQKFQGRVTITRDTSASTAYMELSSLRSEDTAVYYCARDISYGSFDYWGQGTLVTVSS
VL: SSELTQDPAVSVALGQTVRITCQGDSLRSNYANWYQQKPGQAPVLVIYGQNNLPSGIPDRFSGSSSGNTASLTITGAQAADEADYYCDSRVSTGIHVVFGGGTKLTVLG
notes: as for B1
B9: Clone J (affinity matured antibody from the combinatorial library) (Fab, V domains shown)
VH: EVQLVQSGAEVKKPGASVKVSCKASGYTFTYYAMHWVRQAPGQRLEWMGWINAGNGFTKYSQKFQGRVTITRDTSASTAYMELSSLRSEDTAVYYCARDISYGSFDYWGQGTLVTVSS
VL: SSELTQDPAVSVALGQTVRITCQGDSLRSNYANWYQQKPGQAPVLVIYGQNNRPSGIPDRFSGSSSGNTASLTITGAQAADEADYYCDSRVSTGIHVVFGGGTKLTVLG
notes: as for B1
B10: Clone L (affinity matured antibody from the combinatorial library) (Fab, V domains shown)
VH: EVQLVQSGAEVKKPGASVKVSCKASGYTFTIYAMHWVRQAPGQRLEWMGWINAGNGNTKYSQKFQGRVTITRDTSASTAYMELSSLRSEDTAVYYCARDISYGSFDYWGQGTLVTVSS
VL: SSELTQDPAVSVALGQTVRITCQGDSLRSNYANWYQQKPGQAPVLVIYGQFNRPSGIPDRFSGSSSGNTASLTITGAQAADEADYYCDSRVSTGNHVVFGGGTKLTVLG
notes: as for B1
B11: Clone M (affinity matured antibody from the combinatorial library) (Fab, V domains shown)
VH: EVQLVQSGAEVKKPGASVKVSCKASGYTFTIYAMHWVRQAPGQRLEWMGWINAGNGNTKYSQKFQGRVTITRDTSASTAYMELSSLRSEDTAVYYCARDISYGSFDYWGQGTLVTVSS
VL: SSELTQDPAVSVALGQTVRITCQGDSLRSNYANWYQQKPGQAPVLVIYGQFNLPSGIPDRFSGSSSGNTASLTITGAQAADEADYYCDSRVSTGNHVVFGGGTKLTVLG
notes: as for B1
B12: Clone O (affinity matured antibody from the combinatorial library) (Fab, V domains shown)
VH: EVQLVQSGAEVKKPGASVKVSCKASGYTFTYYAMHWVRQAPGQRLEWMGWINAGNGNTKYSQKFQGRVTITRDTSASTAYMELSSLRSEDTAVYYCARDISYGSFDYWGQGTLVTVSS
VL: SSELTQDPAVSVALGQTVRITCQGDSLRSNYANWYQQKPGQAPVLVIYGQNNLPSGIPDRFSGSSSGNTASLTITGAQAADEADYYCDSRVSTGNHVVFGGGTKLTVLG
notes: as for B1
B13: Clone P (affinity matured antibody from the combinatorial library) (Fab, V domains shown)
VH: EVQLVQSGAEVKKPGASVKVSCKASGYTFTIYAMHWVRQAPGQRLEWMGWINAGNGFTKYSQKFQGRVTITRDTSASTAYMELSSLRSEDTAVYYCARDISYGSFDYWGQGTLVTVSS
VL: SSELTQDPAVSVALGQTVRITCQGDSLRSNYANWYQQKPGQAPVLVIYGQNNRPSGIPDRFSGSSSGNTASLTITGAQAADEADYYCDSRVSTGNHVVFGGGTKLTVLG
notes: as for B1
B14: AS04498 antibody (affinity matured, full length IgG) (antibody, V domains shown)
VH: EVQLVQSGAEVKKPGASVKVSCKASGYTFTYYAMHWVRQAPGQRLEWMGWINAGNGNTKYSQKFQGRVTITRDTSASTAYMELSSLRSEDTAVYYCARDISYGSFDYWGQGTLVTVSS
VL: SSELTQDPAVSVALGQTVRITCQGDSLRSNYANWYQQKPGQAPVLVIYGQFNRPSGIPDRFSGSSSGNTASLTITGAQAADEADYYCDSRVSTGIHVVFGGGTKLTVLG
notes: also called ASO4498; AM
B15: M909 IgG (parent monoclonal antibody m909, full length IgG) (antibody, V domains shown, not shown: a dimerising Fc or GST)
VH: EVQLVQSGAEVKKPGASVKVSCKASGYTFTSYAMHWVRQAPGQRLEWMGWINAGNGNTKYSQKFQGRVTITRDTSASTAYMELSSLRSEDTAVYYCARDISYGSFDYWGQGTLVTVSS
VL: SSELTQDPAVSVALGQTVRITCQGDSLRSNYANWYQQKPGQAPVLVIYGQNNRPSGIPDRFSGSSSGNTASLTITGAQAADEADYYCDSRVSTGNHVVFGGGTKLTVLG
notes: also called m909 antibody

target: T1, recombinant human folate receptor beta (FRβ), residues 22 to 236, with ADPG at the N-terminus and five … (human, UniProt P14207 22-236); assay: combinatorial library screen: ELISA on coated antigen, then affinity (dissociation rate) ranking
T1 construct: also called hFRβ; recombinant FRβ
T1 sequence (P14207 other isoform, or with tags, fused parts or gaps): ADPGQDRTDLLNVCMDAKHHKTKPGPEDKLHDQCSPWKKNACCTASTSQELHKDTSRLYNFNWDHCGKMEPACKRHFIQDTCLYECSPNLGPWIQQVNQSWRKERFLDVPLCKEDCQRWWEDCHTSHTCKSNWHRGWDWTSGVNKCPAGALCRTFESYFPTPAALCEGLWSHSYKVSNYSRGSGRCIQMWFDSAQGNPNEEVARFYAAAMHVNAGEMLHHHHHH

Row | Binder | binding result
1 | B1 | binds
2 | B2 | binds
3 | B3 | binds
4 | B4 | binds
5 | B5 | binds
6 | B6 | binds
7 | B7 | binds
8 | B8 | binds
9 | B9 | binds
10 | B10 | binds
11 | B11 | binds
12 | B12 | binds
13 | B13 | binds

target: T1, recombinant human folate receptor beta …; assay: SPR, Biacore T200; affinity relative to the chimeric IgG control
Experimental: (§1) To begin the analysis of the affinity matured antibodies, AS04498 was selected for further analysis. Antibody affinity to antigen protein was determined using a Surface Plasmon Resonance (SPR) biosensor, Biacore T200 (GE Healthcare). Antibody was immobilized on the sensor chip through Fc capture method. Antigen protein was used as the analyte. The data of dissociation (kd) and association (k0) rate constants were obtained using Biacore T200 evaluation software. The equilibrium dissociation constants (KD) were calculated from the ratio of kd over k0.

Row | Binder | Fold Increase
14 | B14 | 38 fold

target: T1, recombinant human folate receptor beta …; assay: affinity measurement of full length IgG on recombinant FRβ (FIGS. 6A-6C, summarised in Table 5); reference: Chimeric IgG. The sentence says 'higher' of the KD, but the KD is lower, so the affinity is higher
Experimental: as §1

Row | Binder | fold change of KD against the chimeric IgG control
15 | B14 | 38 fold

target: T1, recombinant human folate receptor beta …; assay: SPR, Biacore T200, antibody captured through Fc, hFRβ as analyte
Experimental: as §1

Row | Binder | Kd | koff | kon
16 | B14 | 2.5 nM | 0.000144 s⁻¹ | 57700 M⁻¹ s⁻¹
17 | B15 | 92.4 nM | 0.00592 s⁻¹ | 64100 M⁻¹ s⁻¹
